Results: patent publication US20060240001A1 (AGOURON PHARMACEUTICALS, published 2006)
Changes are numbered by the printed parent chain. Each block holds one binder with its values, some of them ahead of it.

Tests used:
[1] = target: T1, human P-cadherin on the surface of cells (human, UniProt P22223 108-829); experiment: cell-based or functional assay
[2] = target: T2, recombinant human E-cadherin (R&D Systems 648-EC-100) (human, UniProt P12830 155-707); experiment: ELISA on coated antigen, relative KD
T2 construct: Bought protein
T2 sequence (looked up): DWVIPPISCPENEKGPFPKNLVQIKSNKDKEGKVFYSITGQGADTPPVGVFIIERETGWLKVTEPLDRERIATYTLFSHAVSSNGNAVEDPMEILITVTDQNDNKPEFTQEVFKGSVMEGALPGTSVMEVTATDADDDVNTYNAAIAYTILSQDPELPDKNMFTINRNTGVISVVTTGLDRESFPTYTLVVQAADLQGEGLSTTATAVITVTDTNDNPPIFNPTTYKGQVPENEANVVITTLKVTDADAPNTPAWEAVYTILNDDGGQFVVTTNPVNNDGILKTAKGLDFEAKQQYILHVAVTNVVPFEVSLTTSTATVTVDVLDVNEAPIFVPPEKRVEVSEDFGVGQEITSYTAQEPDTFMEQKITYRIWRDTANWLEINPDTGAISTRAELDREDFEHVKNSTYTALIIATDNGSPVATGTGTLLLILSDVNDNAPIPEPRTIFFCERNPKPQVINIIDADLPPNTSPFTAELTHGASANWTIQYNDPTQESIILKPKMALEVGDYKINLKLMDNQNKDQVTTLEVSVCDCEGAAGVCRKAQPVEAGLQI

[3] = target: T3, Recombinant human P-cadherin Fc (R&D Systems 861-PC-100) (human, UniProt P22223 108-654); experiment: ELISA on coated antigen, relative KD
T3 construct: also called recombinant human P-cadherin/Fc fusion protein; hCad/Fc; not shown: Fc part of the bought fusion protein

[4] = target: T3, Recombinant human P-cadherin Fc (R&D …); experiment: ELISA; KD on E-cadherin over KD on P-cadherin
[5] = target: T1, human P-cadherin on the surface of cells; experiment: cell-based or functional assay; remark: listed apart in the source
[6] = target: T1, human P-cadherin on the surface of cells; experiment: cell-based or functional assay; remark: listed apart in the source
[7] = target: T1, human P-cadherin on the surface of cells; experiment: cell-based or functional assay; remark: listed apart in the source

B1: 196-d10 (antibody, V domains shown)
VH: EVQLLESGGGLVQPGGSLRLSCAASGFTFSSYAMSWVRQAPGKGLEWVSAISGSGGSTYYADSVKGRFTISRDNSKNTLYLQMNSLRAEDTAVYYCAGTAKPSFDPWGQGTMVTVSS
VL: QSALTQPASVSGSPGQSITISCTGTSNDVGAYNYVSWYQQHPGKAPKLILSEVNKRPSGVSNRFSGSKSGNTASLSISGLQAEDEADYYCTSYTMGSTFMLFGGGTKLTVL
notes: Tested as IgG converted from scFv; also called 196-d10 IgG
SW480 Aggregation Assay Mean IC50 [1]: 1500 pM
Kd [2]: 63 pM
Kd [3]: 45 pM
KD(E)/KD(P) [4]: 1.4
SW480 Spheroid Disruption Assay, Fold Increased Disruption vs Control at 5 nM [5]: 10 fold
A431 Adhesion Assay Mean IC50 (nM) (n = 3) [6]: 0.08 nM

B2: 194-a02 (antibody, V domains shown)
VH: not shown
VL: B1 VL with T91S, Y93F, M95S, S97L, T98P, F99W, M100V
notes: Tested as IgG converted from scFv
SW480 Aggregation Assay Mean IC50 [1]: 1100 pM
Kd [2]: 682 pM
Kd [3]: 116 pM
KD(E)/KD(P) [4]: 6
SW480 Spheroid Disruption Assay, Fold Increased Disruption vs Control at 5 nM [5]: 10 fold
A431 Adhesion Assay Mean IC50 (nM) (n = 3) [6]: 0.217 nM

B3: 194-e01 (antibody, V domains shown)
VH: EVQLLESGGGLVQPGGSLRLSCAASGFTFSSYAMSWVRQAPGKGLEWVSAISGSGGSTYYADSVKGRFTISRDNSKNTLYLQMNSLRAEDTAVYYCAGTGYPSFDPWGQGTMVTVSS
VL: B1 VL with D87G, T94R, M95A
notes: as for B2
SW480 Aggregation Assay Mean IC50 [1]: 1300 pM
Kd [2]: 20500 pM
Kd [3]: 112 pM
KD(E)/KD(P) [4]: 183
SW480 Spheroid Disruption Assay, Fold Increased Disruption vs Control at 5 nM [5]: 16 fold
A431 Adhesion Assay Mean IC50 (nM) (n = 3) [6]: 0.147 nM

B7: 195-a09 (antibody, V domains shown)
VH: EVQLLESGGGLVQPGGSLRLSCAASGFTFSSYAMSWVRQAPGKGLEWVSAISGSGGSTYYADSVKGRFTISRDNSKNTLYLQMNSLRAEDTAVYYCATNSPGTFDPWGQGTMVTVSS
VL: B1 VL
notes: Tested as IgG converted from scFv; also called 195-a09 IgG
SW480 Aggregation Assay Mean IC50 [1]: 1700 pM
Kd [2]: 11500 pM
Kd [3]: 120 pM
KD(E)/KD(P) [4]: 96
SW480 Spheroid Disruption Assay, Fold Increased Disruption vs Control at 5 nM [5]: 10 fold
A431 Adhesion Assay Mean IC50 (nM) (n = 3) [6]: 0.114 nM

B8: 194-e06 (antibody, V domains shown)
VH: not shown
VL: B1 VL with T91S, Y93F, M95S, S97L, T98P, F99W, M100V
SW480 Aggregation Assay Mean IC50 [1]: 700 pM
A431 Adhesion Assay Mean IC50 (nM) (n = 3) [6]: 0.162 nM
A431 Adhesion Assay Mean IC50 (nM) (n = 2) [7]: 0.46 nM

The remaining lines, values ahead:

SW480 Aggregation Assay Mean IC50 [1]: 2900 pM
Kd [2]: 19400 pM
Kd [3]: 78 pM
KD(E)/KD(P) [4]: 249
SW480 Spheroid Disruption Assay, Fold Increased Disruption vs Control at 5 nM [5]: 13 fold
A431 Adhesion Assay Mean IC50 (nM) (n = 3) [6]: 0.097 nM
B4: 198-a09 (antibody, V domains shown)
VH: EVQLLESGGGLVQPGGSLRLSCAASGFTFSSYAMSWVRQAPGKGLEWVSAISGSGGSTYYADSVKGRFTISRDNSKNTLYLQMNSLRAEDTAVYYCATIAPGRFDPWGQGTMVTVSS
VL: B1 VL with S13P
notes: Tested as IgG converted from scFv; also called 198-a09 IgG

SW480 Aggregation Assay Mean IC50 [1]: 1900 pM
Kd [2]: 187 pM
Kd [3]: 62 pM
KD(E)/KD(P) [4]: 3
SW480 Spheroid Disruption Assay, Fold Increased Disruption vs Control at 5 nM [5]: 10 fold
A431 Adhesion Assay Mean IC50 (nM) (n = 3) [6]: 0.117 nM
B5: 196-e06 (antibody, V domains shown)
VH: EVQLLESGGGLVQPGGSLRLSCAASGFTFSSYAMSWVRQAPGKGLEWVSAISGSGGSTYYADSVKGRFAISRDNSKNTLYLQMNSLRAEDTAVYYCAGSRTVQFDPWGQGTMVTVSS
VL: B1 VL
notes: Tested as IgG converted from scFv; also called 196-e06 IgG

Kd [2]: 794 pM
Kd [3]: 191 pM
KD(E)/KD(P) [4]: 4
A431 Adhesion Assay Mean IC50 (nM) (n = 2) [7]: 0.77 nM
B6: g-194-e06 (antibody, V domains shown)
VH: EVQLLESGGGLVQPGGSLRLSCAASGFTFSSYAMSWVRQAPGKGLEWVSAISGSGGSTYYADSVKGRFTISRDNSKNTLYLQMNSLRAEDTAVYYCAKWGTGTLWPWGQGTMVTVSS
VL: B1 VL with I49M, L50I, S76T, T91S, Y93F, M95S, S97L, T98P, F99W, M100V
notes: Tested as IgG

SW480 Aggregation Assay Mean IC50 [1]: 900 pM
Kd [2]: 2160 pM
Kd [3]: 788 pM
KD(E)/KD(P) [4]: 3
SW480 Spheroid Disruption Assay, Fold Increased Disruption vs Control at 5 nM [5]: 10 fold
A431 Adhesion Assay Mean IC50 (nM) (n = 2) [7]: 0.77 nM
B9: g-194-b09 (antibody, V domains shown)
VH: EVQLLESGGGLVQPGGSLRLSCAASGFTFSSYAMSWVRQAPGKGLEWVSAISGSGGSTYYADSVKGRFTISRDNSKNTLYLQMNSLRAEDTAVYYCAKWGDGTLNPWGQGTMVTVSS
VL: QSALTQPASVSGSPGQSITISCTGTSNDVGAYNYVSWYQQHPGKAPKLMISEVNKRPSGVSNRFSGSKSGNTASLTISGLQAEDEADYYCSSFTSGLPWVVFGGGTKLTVL
notes: Tested as IgG

SW480 Aggregation Assay Mean IC50 [1]: 900 pM
Kd [2]: 7510 pM
Kd [3]: 449 pM
KD(E)/KD(P) [4]: 17
SW480 Spheroid Disruption Assay, Fold Increased Disruption vs Control at 5 nM [5]: 13 fold
A431 Adhesion Assay Mean IC50 (nM) (n = 2) [7]: 1.05 nM
B10: g-196-g03 (antibody, V domains shown)
VH: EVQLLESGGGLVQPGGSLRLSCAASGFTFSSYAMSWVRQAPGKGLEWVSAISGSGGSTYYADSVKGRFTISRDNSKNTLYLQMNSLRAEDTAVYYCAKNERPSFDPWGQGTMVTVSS
VL: B1 VL with I49M, L50I, S76T
notes: Tested as IgG; also called germlined version of 196-g03
